Substitutions are numbered along the chain they refer to. Names and notes keep the numbering of the source. No end group written: not given here. *: point of attachment. Biotin = O=C1N[C@H]2[C@H](CS[C@H]2CCCCC(=O)*)N1
T1: PGVVKSK(biotin) peptide (PGXVKSK(biotin), X = Val)
T1 construct: also called Val at P3
T1 peptide: PGVVKSK(Biotin)

T2: PGMVKSK(biotin) peptide (PGXVKSK(biotin), X = Met)
T2 construct: also called Met at P3
T2 peptide: PGMVKSK(Biotin)

T3: PVLVKSK(biotin) peptide (PXLVKSK(biotin), X = Val)
T3 construct: also called Val at P2
T3 peptide: PVLVKSK(Biotin)

T4: PGRVKSK(biotin) peptide (PGXVKSK(biotin), X = Arg)
T4 construct: also called Arg at P3
T4 peptide: PGRVKSK(Biotin)

T5: PSLVKSK(biotin) peptide (PXLVKSK(biotin), X = Ser)
T5 construct: also called Ser at P2
T5 peptide: PSLVKSK(Biotin)

T6: PGSVKSK(biotin) peptide (PGXVKSK(biotin), X = Ser)
T6 construct: also called Ser at P3
T6 peptide: PGSVKSK(Biotin)

T7: PGFVKSK(biotin) peptide (PGXVKSK(biotin), X = Phe)
T7 construct: also called Phe at P3
T7 peptide: PGFVKSK(Biotin)

T8: FGLVKSK(biotin) peptide (XGLVKSK(biotin), X = Phe)
T8 construct: also called Nt-Phe peptide
T8 peptide: FGLVKSK(Biotin)

T9: NH2-PGLVKSK(biotin)-COOH peptide (SMILES CC(C)C[C@H](NC(=O)CNC(=O)[C@@H]1CCCN1)C(=O)N[C@H](C(=O)N[C@@H](CCCCN)C(=O)N[C@@H](CO)C(=O)N[C@@H](CCCCNC(=O)CCCC[C@@H]1SC[C@@H]2NC(=O)N[C@@H]21)C(=O)O)C(C)C)
T9 construct: Immobilised on streptavidin biosensors in BLI; in solution in the yeast display sorts; also called Nt-Pro peptide; target peptide
T9 peptide: H-PGLVKSK(Biotin)-OH

T10: VGLVKSK(biotin) peptide (XGLVKSK(biotin), X = Val)
T10 construct: also called Nt-Val peptide
T10 peptide: VGLVKSK(Biotin)

T11: MGLVKSK(biotin) peptide (XGLVKSK(biotin), X = Met)
T11 construct: also called Nt-Met peptide
T11 peptide: MGLVKSK(Biotin)

B1: wild-type human GID4 fragment (residues 116-300), purified with N-terminal His-tag (other)
chain: GVATSLLYSGSKFRGHQKSKGNSYDVEVVLQHVDTGNSYLCGYLKIKGLTEEYPTLTTFFEGEIISKKHPFLTRKWDADEDVDRKHWGKFLAFYQYAKSFNSDDFDYEELKNGDYVFMRWKEQFLVPDHTIKDISGASFAGFYYICFQKSAASIEGYYYHRSSEWYQSLNLTHVPEHSAPIYEFR
notes: Expressed in E. coli BL21(DE3), nickel-column purified; also called wild-type GID4; native GID4; not shown: N-terminal six-histidine tag and TEV protease recognition site from the pET21(+) construct
B2: GID4 A252V variant (residues 116-300), purified with N-terminal His-tag (designed binder)
chain: B1 chain with A137V
notes: not shown: N-terminal six-histidine tag and TEV protease recognition site from the pET21(+) construct
B3: GID4 A252V-S283F double mutant variant (residues 116-300), purified with N-terminal His-tag (designed binder)
chain: B1 chain with A137V, S168F
notes: also called A252V-S283F mutant; not shown: N-terminal six-histidine tag and TEV protease recognition site from the pET21(+) construct
B4: GID4 A252V-S253T-S283F triple mutant variant (residues 116-300), purified with N-terminal His-tag (designed binder)
chain: B1 chain with A137V, S138T, S168F
notes: as for B2
B5: GID4 S283F variant (residues 116-300), purified with N-terminal His-tag (designed binder)
chain: B1 chain with S168F
notes: as for B2
B6: GID4 A252V-S253T double mutant variant (residues 116-300), purified with N-terminal His-tag (designed binder)
chain: B1 chain with A137V, S138T
notes: also called A252V-S253T mutant; not shown: N-terminal six-histidine tag and TEV protease recognition site from the pET21(+) construct
B7: GID4 S253T variant (residues 116-300), purified with N-terminal His-tag (designed binder)
chain: B1 chain with S138T
notes: as for B2
B8: yeast-surface displayed GID4 A252V variant (residues 116-300, HA-tag, (GGGGS)x3 linker, c-Myc-tag) (designed binder)
chain: YPYDVPDYAGGGGSGGGGSGGGGSGVATSLLYSGSKFRGHQKSKGNSYDVEVVLQHVDTGNSYLCGYLKIKGLTEEYPTLTTFFEGEIISKKHPFLTRKWDADEDVDRKHWGKFLAFYQYAKSFNSDDFDYEELKNGDYVFMRWKEQFLVPDHTIKDISGVSFAGFYYICFQKSAASIEGYYYHRSSEWYQSLNLTHVPEHSAPIYEFREQKLISEEDL
notes: also called A252V (Sort 3ii); not shown: yeast-surface display fusion partner encoded by the pCTCON2 plasmid
B9: yeast-surface displayed GID4 S283F variant (residues 116-300, HA-tag, (GGGGS)x3 linker, c-Myc-tag) (designed binder)
chain: B8 chain with V161A, S192F
notes: also called S283F (Sort 3i); not shown: yeast-surface display fusion partner encoded by the pCTCON2 plasmid
B10: yeast-surface displayed GID4 S253T variant (residues 116-300, HA-tag, (GGGGS)x3 linker, c-Myc-tag) (designed binder)
chain: B8 chain with V161A, S162T
notes: also called S253T (Sort 3i); not shown: yeast-surface display fusion partner encoded by the pCTCON2 plasmid

Columns and labels:
[1] = biological target: T1, PGVVKSK(biotin) peptide …; experiment: BLI, biotinylated peptide on streptavidin biosensor
Experimental: (§1) The measurements were analyzed with instrument software Data Analysis HT (Version 12).
(§2) Previous works on GID4, as well as other N-degron proteins reported significant impact of the second position of the peptide (P2) on binding affinity. The impact of the P2 on the top variants were evaluated with BLI assay using PGLVKSK(biotin) and PXLVKSK(biotin) peptides, where X is Arg, Asp, Val, Phe, Ser, Met, or Pro. […] S283F variant and, especially, A252V variant retain higher level of BLI response compared to wild-type when Val or Ser is at P2. S283F variant retains 40% of signal with Ser at P2 and A252V variant retains >65% with Val and Ser. This retention of binding response with Val and Ser at P2, relative to Gly at P2, is maintained with the triple mutant the double mutants, with over 58% of signal retained for these variants when Ser is at P2. The A252V-S283F mutant and the triple mutant retained >55% of signal when Val is at P2.
(§3) Due to the depth of the binding pocket of GID4, the binding is impacted by the identity of residues in the target peptide beyond P2. […] Similar to evaluating the impact of P2, the impact of P3 was evaluated via BLI with PGLVKSK(biotin) peptide and PGXVKSK(biotin) peptides, where X is Arg, Asp, Val, Phe, Ser, Met, or Pro. […] Asp and Pro are particularly not favorable at P3, as almost no BLI signal was measured. The BLI response of variants with the rest of the peptides, however, increased.

[2] = biological target: T2, PGMVKSK(biotin) peptide …; experiment: as above
Experimental: as §1, §2, §3

[3] = biological target: T3, PVLVKSK(biotin) peptide …; experiment: as above
Experimental: as §1, §2, §3

[4] = biological target: T4, PGRVKSK(biotin) peptide …; experiment: as above
Experimental: as §1, §2, §3

[5] = biological target: T5, PSLVKSK(biotin) peptide …; experiment: as above
Experimental: as §1, §2, §3

[6] = biological target: T6, PGSVKSK(biotin) peptide …; experiment: as above
Experimental: as §1, §2, §3

[7] = biological target: T7, PGFVKSK(biotin) peptide …; experiment: as above
Experimental: as §1, §2, §3

[8] = biological target: T8, FGLVKSK(biotin) peptide …; experiment: BLI, biotinylated peptide on streptavidin biosensor, 10 µmol/L protein
Experimental: (§4) High-throughput kinetic measurements were taken using Octet Red96e system with Octet Streptavidin (SA) Biosensors in 96-well format. The highest concentration of protein was prepared by mixing 25% of the total volume with 0.4% BSA in dialysis buffer (1×PBS) and completing subsequent dilutions with 0.1% BSA in dialysis buffer. The SA biosensors were hydrated for 10 min in the dialysis buffer with 0.1% BSA then loaded with NH₂-XXXVKSK(biotin)-COOH (where X are residues specified in the experiment and figures) by moving the sensors into wells with 10 μmol/L of the biotinylated peptide and incubating for 2 min. Unbound peptide was removed by incubating in the dialysis buffer with 0.1% BSA for 2 min in the next wells. The association of GID4 wild-type and variants were then measured by incubating the biosensors in wells with the proteins for 10 min and then dissociation measured by moving the sensors into new wells with dialysis buffer with 0.1% BSA for another 10 min. All wells contained 200 μL of specified solution. The measurements were analyzed with instrument software Data Analysis HT (Version 12).
(§5) The association and dissociation of the GID4 wild-type and the six variants to the PGLVKSK(biotin) peptide were evaluated using BLI. BLI is an optical technique that can measure interaction between protein in solution ad peptide immobilized on the biosensor tip. […] The S283F variant has an apparent faster dissociation rate compared to the other singe mutation variants. The apparent faster dissociation rate due to S283F mutation is also present in A252V-S283F mutant, when compared to the A252V-S253T mutant. […] The increase in the BLI response and shift in dissociation rate can be beneficial as an Nt-Pro recognizing protein; differences in off-rate can be used as method to distinguish different Nt-amino acids.

[9] = biological target: T9, NH2-PGLVKSK(biotin)-COOH peptide; experiment: as above
Experimental: as §4, §5

[10] = biological target: T10, VGLVKSK(biotin) peptide …; experiment: as above
Experimental: as §4, §5

[11] = biological target: T11, MGLVKSK(biotin) peptide …; experiment: as above
Experimental: as §4, §5

[12] = biological target: T9, NH2-PGLVKSK(biotin)-COOH peptide; experiment: yeast-surface display, FACS with biotinylated peptide and streptavidin-R-phycoerythrin
Experimental: After expression, aliquots of cells were pelleted at 3000 RPM for 3 min and suspended to 1 mL for sort samples and 100 μL for control samples such that OD₆₀₀=1 in 0.1% BSA in 1× phosphate-buffered saline (PBS, 137 mmol/L NaCl, 2.7 mmol/L KCl, 10 mmol/L sodium phosphate dibasic, 1.8 mmol/L potassium phosphate monobasic, pH 7.4). The samples were prepared with or without 10 μmol/L of NH₂-PGLVKSK(biotin)-COOH peptide, which has biotin attached to the C-terminal lysine residue. Cells were incubated, while rotating with mixing for 90 min at room temperature. Cells were then pelleted at 3600 RPM for 3 min at 4° C. and suspended in 1 mL of 0.1% BSA in PBS with 10 μg/mL of α-c-Myc (9E1) antibody conjugated to Alexa Fluor® 647 and 25 μg/mL of streptavidin conjugated to R-phycoerythrin (FIG. 1c). For control samples, no or single fluorescent probe was included in 100 μL total volume. After incubation in the dark for 40 min on ice, the cells were washed with 0.1% BSA in PBS and kept on ice until running on cell sorter.
Cells were sorted by fluorescence-activated cell sorting (FACS) on Sony SH800 cell sorter with 100 μm chip. Control samples were used to set up compensation and gate for single cells that show binding to both fluorescent probes (Q2 in FIG. 1d). A total of 70345 cells were sorted into two 5 mL FACS tubes with 1 mL of SD-CAA in each and then combined in 14 mL Falcon cell culture tube for growth with additional 2 mL of SD-CAA media and 10 μg/mL of Carb. After ˜36 hrs of growth at 30° C. and 300 RPM, cells were subcultured to expression media and the selecting and sorting repeated, with modification of using 1 μmol/L of the peptide and collecting 10000 cells from gated areas. A third round of expression, selection, and sorting was done using 0.5 μmol/L of the biotinylated peptide. In each round of cell sorting and amplification, ˜10⁷ cells were pelleted and frozen for plasmid extraction.

| Binder | % of steady-state BLI response relative to PGLVKSK(biotin) [1] | % of steady-state BLI response relative to PGLVKSK(biotin) [2] | % of steady-state BLI signal retained relative to PGLVKSK(biotin) [3] | % of steady-state BLI response relative to PGLVKSK(biotin) [4] | % of steady-state BLI signal retained relative to PGLVKSK(biotin) [5] | % of binding response relative to PGLVKSK(biotin) [6] | % of steady-state BLI response relative to PGLVKSK(biotin) [7] | binding result [8] | fold steady-state BLI response against wild-type GID4 [9] | binding result [10] | binding result [11] | % of steady-state BLI response relative to PGLVKSK(biotin) [6] | binding result [9] | binding result [2] | binding result [3] | binding result [4] | binding result [7] | binding result [1] | binding result [12] |
| --- | --- | --- | --- | --- | --- | --- | --- | --- | --- | --- | --- | --- | --- | --- | --- | --- | --- | --- | --- |
| B1 | > 50% |  |  |  |  |  |  |  |  |  |  |  |  |  |  |  |  |  |  |
| B2 | > 60% | > 60% | > 65% | > 60% | > 65% | < 31% | > 60% | binds | 1.7 fold | binds | binds |  |  |  |  |  |  |  |  |
| B3 | > 69% | > 69% | > 55% | > 69% | > 58% |  | > 69% | binds |  | binds | binds | > 51% | binds |  |  |  |  |  |  |
| B4 | > 69% | > 69% | > 55% | > 69% | > 58% |  | > 69% | binds | > 2.3 fold | binds | binds | > 51% |  |  |  |  |  |  |  |
| B5 |  |  |  |  | 40% | < 31% |  | binds |  | binds | binds |  | binds | binds | binds | binds | binds | binds |  |
| B6 | > 69% | > 69% |  | > 69% | > 58% |  | > 69% | binds |  | binds | binds | > 51% | binds |  | binds |  |  |  |  |
| B7 |  |  |  |  |  | < 31% |  | binds |  | binds | binds |  | binds | binds |  | binds | binds | binds |  |
| B8 |  |  |  |  |  |  |  |  |  |  |  |  |  |  |  |  |  |  | binds |
| B9 |  |  |  |  |  |  |  |  |  |  |  |  |  |  |  |  |  |  | binds |
| B10 |  |  |  |  |  |  |  |  |  |  |  |  |  |  |  |  |  |  | binds |

Source: patent US20250026797A1 (GOVERNMENT OF THE UNITED STATES OF AMERICA AS REPRESENTED …, published 2025)
